B1: V049 (antibody, V domains shown)
VH: QVQLVESGGGVVQPGRSLRLSCAASRFPFSNYGMHWVRQAPGKGLEWVAVISFDGNNKYYGDSVKGRLTISRDNSKNTLYLQVKSLRPEDTAVYYCAKDISTGLSLALFRSPDGEGMDVWGQGTTVTVSS
VL: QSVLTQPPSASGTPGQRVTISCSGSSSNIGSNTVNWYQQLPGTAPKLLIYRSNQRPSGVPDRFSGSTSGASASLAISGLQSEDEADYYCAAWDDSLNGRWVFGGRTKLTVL
notes: IgG; donor BRA15; source: recombinant monoclonal IgG, produced and purified as previously described
B2: V003 (antibody, V domains shown)
VH: EVQLVQSGAEVKKPGESLKISCLGSGYSFTSYWIGWVRQMPGKGLEWMGIIFPADSDTRYSPSFQGQVIISADKSISTAYLQWSSLKASDTAMYYCARLREFGDYYYYGMDVWGQGTTVTVSS
VL: DIQLTQSPSSLSASVGDRVTITCRASQGISSYLAWYQQKPGKAPKLLIYAASTLQSGVPSRFSGSGSGTDFTLTISSLQPEDFATYYCQQLNSYPDFGQGTKLEIK
notes: IgG; donor BRA13; source: recombinant monoclonal IgG, produced and purified as previously described
B3: V004 (antibody, V domains shown)
VH: QVQLQESGPGLVKPSQTLSLTCTVSGGSISSGSYYWSWIRQPAGKGLEWIGRIYTSGSTNYNPSLKSRVTISVDTSKNQFSLKLSSVTAADTAVYYCARDTTDDYYVIWGQGTLVTVSS
VL: DIQMTQSPSTLSASVGDRVTITCRASQSIRSWLAWYQQKPGKAPKLLIYDASSLESGVPSRFSGSGSGTEFTLTISSLQPDDFATYYCQQYNTHFRTFGQGTKVEIK
notes: as for B2
B4: V038 (antibody, V domains shown)
VH: QVQLVQSGAEVKKPGASVKVSCKASGYTFTGYYVHWVRQAPGQGLEWMGWINPNSGGTNFAQRFQGRVTMTRDTSISTAYMELSRLRSDDTAVYYCARGITVYGVAPDAFDIWGQGTMVTVSS
VL: DIQMTQSPSSLSASVGDRVTITCQASQDISNYLNWYQQKPGKAPKVLIYDASNLEPGVPSRFSGSGSGTDFTFTISSLQPEDIATYYCQQYDNLITFGQGTRLEIK
notes: as for B1
B5: V048 (antibody, V domains shown)
VH: QVQLVQSGAEVKKPGASVKVSCKASGYTFTSYVISWVRQAPGQGLEWMGWISAYNGNTNYAQKLQGRVTMTTDTSTSTAYMELRSLRSDDTAVYYCARDVAGITMIVEEVIDAFDIWGQGTMVTVSS
VL: SYELTQPSSVSVSPGQTARITCSGDVLAKKYARWFQQKPGQAPVLVIYKDSERPSGIPERFSGSSSGTTVTLTISGAQVEDEADYYCFSAPDNNRVFGGGTKLTVL
notes: as for B1
B6: V054 (antibody, V domains shown)
VH: QVQLVESGGGVVQPGRSLRLSCAASGFPFSSFGMHWVRQAPGKGLEWVAVISSDGSNKYYADSVKGRFTISRDNSKNTLYLQMNSLRAEDTAVYYCAKEFTYVVVTALWGTENFDIWGQGTMVTVSS
VL: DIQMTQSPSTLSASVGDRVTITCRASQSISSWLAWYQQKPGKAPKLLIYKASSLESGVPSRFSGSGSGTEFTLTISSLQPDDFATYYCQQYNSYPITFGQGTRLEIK
notes: as for B1
B7: V055 (antibody, V domains shown)
VH: QVQLVQSGAEVKKPGSSVKVSCKASGGTFSSYIINWVRQAPGQGLEWMGRIIPILGIANYAQKFHGRVTITADESTSTAYMELSSLRSEDTAVYYCARGGPDPSDSNYAALLYYYYMDVWGKGTTVTVSS
VL: QSVLTQPPSVSAAPGQKVTISCSGSSSNIGSYYVSWYQKLPGTAPKLLIHENNKRPSGIPDRISGSKSGTSATLGITGLQTGDEADYYCGTWDSSLSDVVFGGGTKLTVL
notes: as for B1
B8: V051 (antibody, V domains shown)
VH: QVQLVESGGGVVQPGRSLRLSCEASGFTFSTYAMHWVRQAPGKGLEWVAVISYDGNNKYYADSVKGRLTVSRDNSKNTLYLQMNSLRAEDTAEYYCARDDGGYCSSLSCPMDVWGQGTTVTVSS
VL: SYELTQPPSVSVAPGKTARITCGGNSIGSKSVHWYQQRPGQAPVLVIYYDSDRPSGIPERFSGSNSGNTATLTISRVEAGDEADYYCQVWDSTLVFGGGTKLTVL
notes: as for B1
B9: V042 (antibody, V domains shown)
VH: QLQLQESGPGLVKPSETLSLTCTVSGGSISSSTNYWGWIRQPPGKGLEWIGSIDYSGSTYYNPSLKSRVTMSVDTSKNQFSLKLSSVTATDTAMYYCARHVIDDSRGYYPAALDHWSQGTLVTVSS
VL: EIVLTQSPATLSLSPGERATLSCRASQSVNNYLAWYQQKPGQAPRLLIYDASNRATGVPARFSGSGSGTDFTLTISSLEPEDFAVYFCQQRSNWPPMYTFGQGTKLEIK
notes: as for B1
B10: V053 (antibody, V domains shown)
VH: QVQLVQSGAEVKKPGASVKVSCKASGYTFTSYYMHWVRQAPGQGLEWMGIINPSAGSTTYAQKFQGRVTMTSDTSTSTVYMELSSLKSEDTAVYYCARDFVLVPASYGMDVWGQGTTVTVSS
VL: QSVLTQPASVSGSPGQSITISCTGTSSDVGSYNLVSWFQQHPGKAPKLMIYQVSKRPSGASNRFSGSKSGNTASLTISGLQAEDEADYYCCSYAGSSTVWVFGGGTKLTVL
notes: as for B1
B11: V043 (antibody, V domains shown)
VH: QLQLQESGPGLVKPSETLSLTCTVSGGSISSNNYYWGWIRQPPGKGLECIGTIYYSGNTYYNPSLKSRVTISVDTSKNQFSLKLGSVTAADTAVYYCARQQWLRDAFHIWGQGTMVTVSS
VL: NFMLTQPHSVSESPGKTVTISCTGSSGSIASNYVQWYQQRPGSAPTIVIYEDNQRPSGVPDRFSGSIDSSSNSASLTISGLKTEDEADYYCQSYDSNIHVVFGGGTKLTVL
notes: as for B1
B12: V044 (antibody, V domains shown)
VH: QVQLVQSGAEVKKPGASVKVSCKASGYTFTSYDINWVRQATGQGLEWMGWMNPNSGYAGYTQKFQGRITMTRNTSISTAYMELSSLRSEDTAVYFCARISSPTRLDPWGQGTLVTVSS
VL: NFMLTQPHSVSESPGKTVTISCSRSRGSIASSFVQWYQQRPGSSPTTVIYDDNQRPSGVPDRFSGSIDSSSNSASLTISGLKTEDEADYYCQSYDSISWVFGGGTKLTVL
notes: as for B1
B13: V050 (antibody, V domains shown)
VH: EVQLVESGGGLVKPGGSLRLSCAASGFSFSNAWMSWVRQAPGKGLEWVGRIKSKTDGGTTDYAAPVKGRFTISRDDSQNTLYLQMNSLKTEDTAVYYCITDRFRVHIRGYYGQGTLVTVSS
VL: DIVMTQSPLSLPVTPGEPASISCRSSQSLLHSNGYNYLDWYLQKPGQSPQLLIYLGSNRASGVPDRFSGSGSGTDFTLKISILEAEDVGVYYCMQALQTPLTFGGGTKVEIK
notes: as for B1
B14: V057 (antibody, V domains shown)
VH: EVQLVESGGGLVQPGRSLRLSCAASGFTFGDYAMHWVRQAPGKGLEWVSGISWNSGIIGQADSVKGRFTISRDNAKNSLYLQMNSLRVEDTALYYCAKGGGESVEVPADEKLDYWGQGTLVTVSS
VL: QSVLTQPPSVSGAPGQRVTISCTGSSSNIGAGYDVHWYQQLPGTAPKLLIYGNNNRPSGVPDRFSGSKSGTSASLAITGLQAEDEADYYCQSYDSSLSGSWVFGGGTKLTVL
notes: as for B1
B15: V056 (antibody, V domains shown)
VH: QVQLVESGGGVVQPGRSLRLSCAASGFPFSNYGMHWVRQAPGKGLEWVAVISYDGSNKYYADSVKGRFTISRDNSKNTLYLQMNSLRAEDTALYYCAKDSRPLPAAMSTYYYYGVDVWGQGTTVTVSS
VL: not shown
notes: as for B1
B16: V060 (antibody, V domains shown)
VH: B15 VH with Q39R, S56L, S85R, L93V, L103V, A105G, V115M
VL: not shown
notes: as for B1
B17: V046 (antibody, V domains shown)
VH: EVQLVESGGGLVQPGRSLRLSCAASGFTFEDYAMHWVRQAPGKGLEWVSGVSWNSGTIGYADSVKGRFIISRDNAKNSLYLQMNSLRAEDTALYYCANLGPTYYDFSRPTPMDVWGKGTTVTVSS
VL: QSALTQPASVSGSPGQSITISCTGTSSDVGGYNYVSWYQQHPGKAPKLIIYDVSNRPSGVSNRFSGSKSGNTASLTISGLQAEDEADYYCSSYTSSSTWVFGGGTKLTVL
notes: as for B1
B18: V061 (antibody, V domains shown)
VH: QVQLVQSGAEVKKPGTSVKVSCKASGYTFKNYGISWVRQAPGQGLEWMGWISAHNGNTNYAQRVQGRVTMTTDTSTSTAYMELRSLRSEDTAVYYCGRESGVASHPGDLDYWGQGTLVTVSS
VL: SYELTQPPSVSVSPGQTARITCSGDALPRQYAYWYQQKPGQAPVLLIYKDSERPSGIPERFSGSSSGTTVTLTISGVQAEDEADYYCQSADSSVVFGGGAKLTVL
notes: as for B1
B19: V037 (antibody, V domains shown)
VH: EVQLVESGGGLVQPGGSLRLSCAASEVIVSSNYMSWVRQAPGKGLEWVSVLYSGGSTFYADSVKGRFTISRDNSKNTLYLQMNSLRAEDTAVYYCARDLGPMGAFDIWGQGTMVTVSS
VL: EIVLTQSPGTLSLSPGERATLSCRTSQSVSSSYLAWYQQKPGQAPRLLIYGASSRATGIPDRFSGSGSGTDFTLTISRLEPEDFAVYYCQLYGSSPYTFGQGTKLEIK
notes: as for B1
B20: V032 (antibody, V domains shown)
VH: QVQLVESGGGVVQPGRSLRLSCAASGFTFSSYGMHWVRQAPGKGLEWVAVISYDGSNKYYADSVKGRFTISRDNSKNTLYLQMNSLRAEDTAVYYCAKVSGPYCSSTSCYTGYWDYWGQGTLVTVSS
VL: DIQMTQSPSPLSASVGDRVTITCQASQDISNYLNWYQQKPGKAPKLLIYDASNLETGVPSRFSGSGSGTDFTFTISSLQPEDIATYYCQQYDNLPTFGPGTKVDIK
notes: IgG; donor BRA14; source: recombinant monoclonal IgG, produced and purified as previously described
B21: V045 (antibody, V domains shown)
VH: QVQLVQSGAEVKKPGASVKVSCKASTYTFTSYYIHWVRQAPGQGLEWMGIINPSGGSTSYAQNFQGRVTMTRDTSTSTVYMELSSLRSEDTAVYYCARGVLIPAAGGDFDYWGQGTLVTVSS
VL: QSALTQPRSVSGSPGQSVTISCTGTSSDVGGYKYVSWYQQHPGKAPKLMIYDVSKRPSGVPDRFSGSKSGNTASLTISGLQAEDEADYYCCSYAGSYSWVFGGGTKLTVL
notes: as for B1
B22: V007 (antibody, V domains shown)
VH: QVQLVQSGAEVKKPGSSVKVSCKASGDTFSTYTISWVRQAPGQGLEWMGRIIPILGVGNYAQKFQGRVTITADKSTSTAYMELSSLRSEDTAVYYCAHTTPPGDAFDIWGQGTMVTVSS
VL: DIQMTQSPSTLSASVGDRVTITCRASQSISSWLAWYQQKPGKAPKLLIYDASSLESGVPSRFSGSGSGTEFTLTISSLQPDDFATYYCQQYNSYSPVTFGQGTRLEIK
notes: as for B2
B23: V033 (antibody, V domains shown)
VH: QVQLVQSGAEVKKPGASVKVSCKASGYTFTSYGISWVRQAPGQGLEWMGWISAYNGNTNYAQKLQGRVTMTTDTSTSTAYMELRSLRSDDTAVYYCARGRFCSSTSCYRAAPNYYYYYMDVWGKGTTVTVSS
VL: NFMLTQPHSVSESPGKTVTISCTRSSGSIASNYVQWYQQRPGSAPTTVIYEDNQRPSGVPDRFSGSIDSSSNSASLTISGLKTEDEADYYCQSYDSSNPYWVFGGGTKLTVL
notes: as for B20
B24: V039 (antibody, V domains shown)
VH: QVQLQESGPGLVKPSQTLSLTCTVSGGSISSGSYYWSWIRQPAGKGLEWIGRIYTSGSTNYNPSLKSRVTISVDTSKNQFSLKLSSVTAADTAVYYCARADYSDYDNYYFDYWGQGTLVTVSS
VL: B23 VL with T19A, Q35H, A44S, E51D, P99H, Y100N
notes: as for B1

Residue numbers refer to the chain shown, from its start.

For this test, the target named is T1, 417N/484K/501Y RBD mutant (SARS-CoV-2, Wuhan-Hu-1 RBD backbone …, 417N | 484K | 501Y).
T1 construct: also called RBD KEN
In words: BLI. The conditions noted are these: both partners purified.
For the molecule B1, binding was characterised by a dissociation constant (Kd) of 20.6 nM.

Molecule B2 gave a Kd of 139 nM.

As to B3, the Kd was found to be 2.92 nM. The value for B4 was 2.37 nM; that for B5 was 6.26 nM; that for B6 was 15.6 nM.

Take B7: binding was characterised by a dissociation constant (Kd) of 1.99 nM. For B8 the value was 7.05 nM. The value for B9 was 23.3 nM; that for B10 was 2.49 nM. As to B11, the Kd came out at 4.02 nM. The molecule B12 showed a dissociation constant Kd of 3.66 nM. The value for B13 was 66.7 nM; that for B14 was 22 nM; that for B15 was 7.58 nM.

In the case of B16, the Kd was 4.79 nM. The value for B17 was 2.85 nM; that for B18 was 10.3 nM; that for B19 was 0.241 nM. In the case of B20, the affinity, expressed as Kd, was 27.3 nM. For B21 the value was 2.79 nM. For B22 the value was 5.78 nM; for B23, 10.7 nM; for B24, 0.542 nM.

Broadly, the Kd is a measure of binding affinity in units of concentration. High values mean a looser complex, low ones a tighter complex.

Source of the values: article PMC9270183 (The Journal of Experimental Medicine, 2022).
